Reference: publication PMC4720395, “Improvements in Glucose Sensitivity and Stability of Trichoderma reesei β-Glucosidase Using Site-Directed Mutagenesis” (PLoS ONE, 2016)
Numbering of substitutions follows the chain as printed. Names and notes keep the numbering of the source.

How the values were obtained:
Cel1A (Bgl II) [1] = target: T1, Cel1A (Bgl II) (Trichoderma reesei, UniProt O93785, L2V/L167W/P172L); assay: Dixon plot, pNPG hydrolysis, p-nitrophenol absorbance […] nm; assay type: biochemical; conditions: pNPG substrate (low concentrations), 100 mM acetate pH 5.5, 30°C; competitive; glucose also stimulates at higher pNPG; read-out: WT
T1 construct: gene bgl2; forward primer with NcoI site encodes N-terminus MVPKDFQW; GH1
T1 sequence (O93785 1-466 L2V/L167W/P172L): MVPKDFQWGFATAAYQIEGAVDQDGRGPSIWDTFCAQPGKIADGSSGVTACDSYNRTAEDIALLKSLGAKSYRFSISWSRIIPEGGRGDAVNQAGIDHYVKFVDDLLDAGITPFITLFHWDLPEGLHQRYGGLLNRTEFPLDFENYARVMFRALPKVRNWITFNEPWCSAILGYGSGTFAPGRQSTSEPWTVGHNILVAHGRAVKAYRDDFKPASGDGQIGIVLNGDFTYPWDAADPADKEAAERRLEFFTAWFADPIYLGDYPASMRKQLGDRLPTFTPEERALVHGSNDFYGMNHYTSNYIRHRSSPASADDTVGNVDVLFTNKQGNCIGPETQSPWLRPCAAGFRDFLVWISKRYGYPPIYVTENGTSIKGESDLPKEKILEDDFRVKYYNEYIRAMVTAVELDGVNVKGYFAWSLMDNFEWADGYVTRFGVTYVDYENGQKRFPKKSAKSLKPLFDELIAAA

Cel1A (Bgl II) [2] = target: T2, Cel1A (Bgl II) (Trichoderma reesei, UniProt O93785, L2V); assay: as above; assay type: biochemical; conditions: pNPG substrate (low concentrations), 100 mM acetate pH 5.5, 30°C; competitive; read-out: WT
T2 construct: gene bgl2; forward primer with NcoI site encodes N-terminus MVPKDFQW; GH1
T2 sequence (O93785 1-466 L2V): T1 sequence (O93785 1-466 L2V/L167W/P172L) with W167L, L172P

purified protein = substrate: O=[N+]([O-])c1ccc(O[C@@H]2O[C@H](CO)[C@@H](O)[C@H](O)[C@H]2O)cc1; assay: purified protein; assay type: biochemical, Trichoderma reesei; conditions: 100 mM acetate pH 5.5, 30°C, no glucose
[3] = substrate inhibition above 0.25 mM pNPG

Which Ki (Cel1A (Bgl II) [1]) does the source give for OC[C@H]1OC(O)[C@H](O)[C@@H](O)[C@@H]1O (stereo partly drawn) [glucose] here?
The Ki was 50 mM.

And the Ki (Cel1A (Bgl II) [2])?
Its Ki is 50 mM.

B1: Cel1A (Bgl II) (Trichoderma reesei; L167W/L2V/P172L) (protein)
chain: T1 sequence (O93785 1-466 L2V/L167W/P172L)
notes: forward primer with NcoI site encodes N-terminus MVPKDFQW; GH1
B1 was tested. Which Km (purified protein; [3]) did it give?
Its Km is 230 ± 10 µM.

What about the Vmax (purified protein; [3]) of the same molecule?
The Vmax was 13.3 µmol/min/mg.

B2: Cel1A (Bgl II) (Trichoderma reesei; L2V) (protein)
chain: T1 sequence (O93785 1-466 L2V/L167W/P172L) with W167L, L172P
notes: as for B1
B2 was tested. Which Km (purified protein) did it give?
Its Km is 2480 ± 750 µM.

And the Vmax (purified protein)?
Its Vmax is 7.7 µmol/min/mg.
